Biological target: the molecule itself
Experiment: native gel or EMSA

B1: long isoform of Sox5 (natural protein)
chain: not shown
- stoichiometry N: 2

From PMC2553580 (Nucleic Acids Research, 2008)
